In the supplement of paper PMC9112550, “Optimization of the antimicrobial peptide Bac7 by deep mutational scanning” (BMC Biology, 2022):

Tested on: Escherichia coli TOP10
Experiment: shrunken log2 fold change of peptide-encoding DNA abundance (4.5 h post-induction vs induction); higher = less antimicrobial activity (less host growth inhibition)
Conditions: time post-induction: 4.5 h; library: site-saturation at positions 5, 18, 19, 20
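Also: peptides expressed intracellularly from a pBAD plasmid library in pooled LB shake-flask culture, induced with 0.3% L-arabinose, DNA abundance read by NGS, three biological replicates, DESeq2 with apeglm shrinkage.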

In order of rising “shrunken log2 fold change” value:
1. RRIRIRPPRLPRPRPRPPYMPRP  -1.19
2. RRIRYRPPRLPRPRPRPTGYPRP  -1.16
3. RRIRARPPRLPRPRPRPYYEPRP  -1.02
4. RRIRPRPPRLPRPRPRPIKFPRP  -0.908
5. RRIRLRPPRLPRPRPRPINTPRP  -0.881
6. RRIRGRPPRLPRPRPRPYYLPRP  -0.791
7. RRIRARPPRLPRPRPRPYYWPRP  -0.77
8. RRIRVRPPRLPRPRPRPWHYPRP  -0.647
9. RRIRCRPPRLPRPRPRPEHYPRP  -0.625
10. RRIRYRPPRLPRPRPRPKHKPRP  -0.545
11. RRIRSRPPRLPRPRPRPVTRPRP  -0.538
12. RRIRARPPRLPRPRPRPNFIPRP  -0.521
13. RRIRFRPPRLPRPRPRPASNPRP  -0.479
14. RRIRRRPPRLPRPRPRPYIPPRP  -0.468
15. RRIRFRPPRLPRPRPRPFSQPRP  -0.452
16. RRIRYRPPRLPRPRPRPTVNPRP  -0.45
17. RRIRNRPPRLPRPRPRPWIRPRP  -0.399
18. RRIRIRPPRLPRPRPRPRSTPRP  -0.391
19. RRIRERPPRLPRPRPRPNVCPRP  -0.382
20. RRIRSRPPRLPRPRPRPCFSPRP  -0.378
21. RRIRTRPPRLPRPRPRPNLKPRP  -0.374
22. RRIRTRPPRLPRPRPRPYCCPRP  -0.364
23. RRIRLRPPRLPRPRPRPFLFPRP  -0.34
24. RRIRIRPPRLPRPRPRPLWTPRP  -0.339
25. RRIRIRPPRLPRPRPRPCTVPRP  -0.337
26. RRIRRRPPRLPRPRPRPLIRPRP  -0.295
27. RRIRSRPPRLPRPRPRPFWMPRP  -0.293
28. RRIRLRPPRLPRPRPRPTNYPRP  -0.251
29. RRIRFRPPRLPRPRPRPDMIPRP  -0.241
30. RRIRRRPPRLPRPRPRPCHTPRP  -0.24
31. RRIRPRPPRLPRPRPRPWCTPRP  -0.218
32. RRIRTRPPRLPRPRPRPKIIPRP  -0.211
33. RRIRTRPPRLPRPRPRPWVNPRP  -0.208
34. RRIRQRPPRLPRPRPRPSNAPRP  -0.198
35. RRIRVRPPRLPRPRPRPTYPPRP  -0.194
36. RRIRVRPPRLPRPRPRPVVVPRP  -0.194
37. RRIRIRPPRLPRPRPRPFWIPRP  -0.193
38. RRIRCRPPRLPRPRPRPQFCPRP  -0.187
39. RRIRNRPPRLPRPRPRPLHDPRP  -0.178
40. RRIRYRPPRLPRPRPRPYRKPRP  -0.178
41. RRIRVRPPRLPRPRPRPAYVPRP  -0.17
42. RRIRTRPPRLPRPRPRPHTTPRP  -0.166
43. RRIRIRPPRLPRPRPRPKWKPRP  -0.152
44. RRIRCRPPRLPRPRPRPCSIPRP  -0.143
45. RRIRLRPPRLPRPRPRPVCSPRP  -0.14
46. RRIRHRPPRLPRPRPRPDRQPRP  -0.135
47. RRIRYRPPRLPRPRPRPRTCPRP  -0.134
48. RRIRYRPPRLPRPRPRPGFEPRP  -0.127
49. RRIRHRPPRLPRPRPRPLTPPRP  -0.119
50. RRIRKRPPRLPRPRPRPQCYPRP  -0.114
51. RRIRNRPPRLPRPRPRPLIYPRP  -0.114
52. RRIRMRPPRLPRPRPRPVFKPRP  -0.111
53. RRIRPRPPRLPRPRPRPCIWPRP  -0.109
54. RRIRLRPPRLPRPRPRPAFHPRP  -0.0947
55. RRIRVRPPRLPRPRPRPHQQPRP  -0.0863
56. RRIRNRPPRLPRPRPRPSEMPRP  -0.0844
57. RRIRCRPPRLPRPRPRPYASPRP  -0.0843
58. RRIRRRPPRLPRPRPRPRDSPRP  -0.0748
59. RRIRFRPPRLPRPRPRPILQPRP  -0.0746
60. RRIRCRPPRLPRPRPRPHPFPRP  -0.0728
61. RRIRHRPPRLPRPRPRPNMEPRP  -0.0709
62. RRIRHRPPRLPRPRPRPHLPPRP  -0.0497
63. RRIRTRPPRLPRPRPRPIKTPRP  -0.0452
64. RRIRSRPPRLPRPRPRPQRTPRP  -0.036
65. RRIRTRPPRLPRPRPRPKHTPRP  -0.0343
66. RRIRSRPPRLPRPRPRPLENPRP  -0.0294
67. RRIRCRPPRLPRPRPRPAHTPRP  -0.0293
68. RRIRRRPPRLPRPRPRPYQMPRP  -0.0261
69. RRIRPRPPRLPRPRPRPCWQPRP  -0.021
70. RRIRRRPPRLPRPRPRPVFYPRP  -0.0199
71. RRIRQRPPRLPRPRPRPLKLPRP  -0.017
72. RRIRHRPPRLPRPRPRPPMHPRP  -0.0169
73. RRIRKRPPRLPRPRPRPIMSPRP  -0.00757
74. RRIRDRPPRLPRPRPRPKGVPRP  -0.00195
75. RRIRWRPPRLPRPRPRPMMDPRP  0.000475
76. RRIRYRPPRLPRPRPRPKMCPRP  0.00281
77. RRIRCRPPRLPRPRPRPMDMPRP  0.00534
78. RRIRGRPPRLPRPRPRPNSGPRP  0.00625
79. RRIRDRPPRLPRPRPRPMCPPRP  0.00942
80. RRIRTRPPRLPRPRPRPGIIPRP  0.0136
81. RRIRVRPPRLPRPRPRPDYQPRP  0.0174
82. RRIRPRPPRLPRPRPRPDHTPRP  0.0191
83. RRIRQRPPRLPRPRPRPGDEPRP  0.021
84. RRIRLRPPRLPRPRPRPYSRPRP  0.0264
85. RRIRIRPPRLPRPRPRPAEYPRP  0.0308
86. RRIRGRPPRLPRPRPRPWCEPRP  0.0333
87. RRIRFRPPRLPRPRPRPVRMPRP  0.0345
88. RRIRQRPPRLPRPRPRPKVLPRP  0.0378
89. RRIRWRPPRLPRPRPRPTVPPRP  0.0399
90. RRIRIRPPRLPRPRPRPAWWPRP  0.0406
91. RRIRHRPPRLPRPRPRPFIPPRP  0.0413
92. RRIRMRPPRLPRPRPRPSVLPRP  0.0464
93. RRIRLRPPRLPRPRPRPMQWPRP  0.0515
94. RRIRGRPPRLPRPRPRPCHFPRP  0.0576
95. RRIRYRPPRLPRPRPRPPKDPRP  0.0611
96. RRIRIRPPRLPRPRPRPWAQPRP  0.0697
97. RRIRNRPPRLPRPRPRPWVLPRP  0.0737
98. RRIRGRPPRLPRPRPRPCQTPRP  0.0774
99. RRIRSRPPRLPRPRPRPGDKPRP  0.0832
100. RRIRLRPPRLPRPRPRPPDKPRP  0.0844
101. RRIRNRPPRLPRPRPRPQKKPRP  0.0889
102. RRIRDRPPRLPRPRPRPDTPPRP  0.0945
103. RRIRSRPPRLPRPRPRPWGPPRP  0.101
104. RRIRTRPPRLPRPRPRPTQRPRP  0.11
105. RRIRQRPPRLPRPRPRPPGEPRP  0.119
106. RRIRARPPRLPRPRPRPDKAPRP  0.121
107. RRIRFRPPRLPRPRPRPCRRPRP  0.122
108. RRIRYRPPRLPRPRPRPRCWPRP  0.136
109. RRIRDRPPRLPRPRPRPTMLPRP  0.138
110. RRIRMRPPRLPRPRPRPNVSPRP  0.141
111. RRIRIRPPRLPRPRPRPVMHPRP  0.152
112. RRIRVRPPRLPRPRPRPSGWPRP  0.16
113. RRIRDRPPRLPRPRPRPEIWPRP  0.162
114. RRIRARPPRLPRPRPRPPQVPRP  0.162
115. RRIRVRPPRLPRPRPRPNSAPRP  0.198
116. RRIRRRPPRLPRPRPRPWWKPRP  0.226
117. RRIRGRPPRLPRPRPRPSDPPRP  0.261
118. RRIRKRPPRLPRPRPRPDDYPRP  0.276
119. RRIRPRPPRLPRPRPRPRMAPRP  0.278
120. RRIRLRPPRLPRPRPRPLPTPRP  0.293
121. RRIRPRPPRLPRPRPRPEKGPRP  0.321
122. RRIRPRPPRLPRPRPRPKLSPRP  0.331
123. RRIRDRPPRLPRPRPRPKEDPRP  0.337
124. RRIRCRPPRLPRPRPRPAWQPRP  0.359
125. RRIRTRPPRLPRPRPRPGSRPRP  0.365
126. RRIRPRPPRLPRPRPRPPQLPRP  0.378
127. RRIRKRPPRLPRPRPRPQDWPRP  0.413
128. RRIRFRPPRLPRPRPRPRENPRP  0.449
129. RRIRTRPPRLPRPRPRPGLFPRP  0.458
130. RRIRVRPPRLPRPRPRPEGSPRP  0.464
131. RRIRRRPPRLPRPRPRPTLTPRP  0.466
132. RRIRGRPPRLPRPRPRPSESPRP  0.504
133. RRIRKRPPRLPRPRPRPVGVPRP  0.515
134. RRIRKRPPRLPRPRPRPRFKPRP  0.52
135. RRIRRRPPRLPRPRPRPAFEPRP  0.54
136. RRIRGRPPRLPRPRPRPFCWPRP  0.551
137. RRIRGRPPRLPRPRPRPMCSPRP  0.606
138. RRIRFRPPRLPRPRPRPVRWPRP  0.632
139. RRIRARPPRLPRPRPRPFAAPRP  0.644
140. RRIRCRPPRLPRPRPRPEMPPRP  0.65
141. RRIRSRPPRLPRPRPRPPRPPRP  0.684
142. RRIRKRPPRLPRPRPRPESQPRP  0.967
143. RRIRGRPPRLPRPRPRPLDQPRP  1.01
144. RRIRFRPPRLPRPRPRPSRDPRP  1.18
145. RRIRVRPPRLPRPRPRPDPPPRP  1.27
146. RRIRCRPPRLPRPRPRPPPEPRP  1.32
147. RRIRTRPPRLPRPRPRPGDMPRP  1.73
148. RRIRNRPPRLPRPRPRPLPSPRP  1.86
149. RRIRMRPPRLPRPRPRPENDPRP  3.77
150. RRIRARPPRLPRPRPRPKHFPRP  4.03
